Reference: patent US20230279117A1 (published 2023)
Substitutions are numbered along the chain they refer to. Where two headings read alike, the source gives them in different places.

Tests used:
[1] = molecular target: T1, cynomolgus monkey PD-L1/His (cynomolgus monkey (Macaca fascicularis), UniProt G7PSE7 19-239); test: ELISA, 200 ng PD-L1 protein coated per well
T1 construct: not shown: His tag
Description: The monkey PD-L1/His and murine PD-L1/His were expressed and purified in a similar way to the human PD-L1/His as described earlier. […] The synthesized full length mAb was named as Y1-IgG1mc. The ELISA assay was performed essentially in the same way as described in the previous section. Briefly, 200 ng of PD-L1 protein was coated on each well of Nunc MaxiSorp ELISA plate (Cat. No. 442404, Nunc, Thermo Fisher). After washing and blocking, indicated concentrations of anti-PD-L1 mAbs were added and incubated at room temperature for 1 hour. After washing, the bound anti-PD-L1 mAbs were detected using a HRP-conjugated goat anti-human Fc antibody (Cat. No. A0170, Sigma).

[2] = molecular target: T2, full length human PD-L1 expressed on cells (human, UniProt Q9NZQ7 19-290); test: FACS competition with PD-1/Fc on HEK293/PD-L1 cells
T2 construct: in HEK293/OS8/PD-L1 co-expressed with the membrane anti-CD3 scFv OS8; also called HEK293/PD-L1; HEK293/OS8/PD-L1
T2 sequence (Q9NZQ7 19-290 limits assumed): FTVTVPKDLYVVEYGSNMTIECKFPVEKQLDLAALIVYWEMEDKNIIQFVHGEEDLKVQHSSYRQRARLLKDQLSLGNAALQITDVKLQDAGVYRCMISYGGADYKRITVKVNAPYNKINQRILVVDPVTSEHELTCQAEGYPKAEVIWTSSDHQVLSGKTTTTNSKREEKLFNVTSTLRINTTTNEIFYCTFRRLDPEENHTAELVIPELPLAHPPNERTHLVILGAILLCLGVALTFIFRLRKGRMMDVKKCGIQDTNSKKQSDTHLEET

[3] = molecular target: T2, full length human PD-L1 expressed on …; test: cell-based or functional assay
[4] = molecular target: T2, full length human PD-L1 expressed on …; test: FACS competition with CD80/Fc on HEK293/PD-L1 cells
human PD-L1-ECD/His [5] = molecular target: T3, human PD-L1-ECD/His (human, UniProt Q9NZQ7 19-238); test: SPR (BIAcore T-200), PD-L1/His on CM5 chip, Fab injected; koff may be too slow to measure
T3 construct: also called PD-L1/His; human PD-L1/His
T3 sequence (Q9NZQ7 19-238): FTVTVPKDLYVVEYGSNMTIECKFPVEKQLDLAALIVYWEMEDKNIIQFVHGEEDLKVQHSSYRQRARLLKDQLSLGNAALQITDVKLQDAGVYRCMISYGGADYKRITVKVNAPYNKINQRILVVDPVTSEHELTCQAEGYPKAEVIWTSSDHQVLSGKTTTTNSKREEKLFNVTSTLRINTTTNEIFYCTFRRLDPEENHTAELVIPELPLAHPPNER
Description: (§1) For affinity determinations of anti-PD-L1 Fabs, SPR assays were performed using BIAcore™ T-200 (GE Life Sciences). Briefly, human PD-L1/His was coupled to an activated CM5 biosensor chip (Cat. No. BR100530, GE Life Sciences) to achieve approximately 100-200 response units (RU), followed by blocking un-reacted groups with 1 M ethanolamine. A serial dilutions of 0.12 nM to 90 nM Fab samples were injected, mixed into the SPR running buffer (10 mM HEPES, 150 mM NaCl, 0.05% Tween20, pH7.4) at 30 µL/minute, and binding responses on human PD-L1/His were calculated by substracting of RU from a blank flow-cell. Association rates (kₒₙ) and dissociation rates (koff) were calculated using the one-to-one Langmuir binding model (BIA Evaluation Software, GE Life Sciences). The equilibrium dissociation constant (Kd) was calculated as the ratio koff/kₒₙ.

human PD-L1-ECD/His [6] = molecular target: T3, human PD-L1-ECD/His; test: SPR (BIAcore T-200), PD-L1/His on CM5 chip, Fab injected
Description: as §1

[7] = molecular target: T2, full length human PD-L1 expressed on …; test: cell-based or functional assay; remark: listed apart in the source
human PD-L1-ECD/His [8] = molecular target: T3, human PD-L1-ECD/His; test: SPR (BIAcore T-200), Fab, human PD-L1; koff may be too slow to measure
Description: as §1
(§2) For affinity determinations of anti-PD-L1 Fabs, SPR assays were conducted using BIAcore™ T-200 instrument (GE Life Sciences, Shanghai, China) as described earlier. Association rates (kₒₙ) and dissociation rates (koff) were calculated using the one-to-one Langmuir binding model (BIA Evaluation Software, GE Life Sciences). The equilibrium dissociation constant (Kd) was calculated as the ratio koff/kₒₙ.

[9] = molecular target: T2, full length human PD-L1 expressed on …; test: FACS competition with CD80/Fc on HEK293/PD-L1 cells; remark: listed apart in the source
[10] = molecular target: T2, full length human PD-L1 expressed on …; test: FACS competition with PD-1/Fc on HEK293/PD-L1 cells; remark: listed apart in the source
[11] = molecular target: T1, cynomolgus monkey PD-L1/His; test: SPR (BIAcore T-200), Fab, monkey PD-L1
[12] = molecular target: T1, cynomolgus monkey PD-L1/His; test: SPR (BIAcore T-200), Fab, monkey PD-L1; koff may be too slow to measure
human PD-L1-ECD/His [13] = molecular target: T3, human PD-L1-ECD/His; test: SPR (BIAcore T-200), Fab, human PD-L1
Description: as §1, §2

T1 sequence (G7PSE7 entry or part of it): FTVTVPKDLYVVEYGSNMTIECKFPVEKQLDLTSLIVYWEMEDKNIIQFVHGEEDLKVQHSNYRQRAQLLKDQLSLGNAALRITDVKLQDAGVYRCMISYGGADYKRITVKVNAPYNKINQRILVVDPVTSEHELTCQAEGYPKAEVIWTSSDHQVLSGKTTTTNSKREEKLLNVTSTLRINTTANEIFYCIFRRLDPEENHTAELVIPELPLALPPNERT

B1: hu333-4B2-IgG1mc (antibody)
heavy: EVQLVESGGGLVQPGGSLRLSCAVSGFSLTSYGVHWVRQAPGKGLEWVAVIWAGGSTNYADSVKGRFTISKDTSKNTVYLQMNSLRAEDTAVYYCAKPYGTSAMDYWGQGTLVTVSSASTKGPSVFPLAPSSKSTSGGTAALGCLVKDYFPEPVTVSWNSGALTSGVHTFPAVLQSSGLYSLSSVVTVPSSSLGTQTYICNVNHKPSNTKVDKKVEPKSCDKTHTCPPCPAPPAAAPSVFLFPPKPKDTLMISRTPEVTCVVVDVSHEDPEVKFNWYVDGVEVHNAKTKPREEQYNSTYRVVSVLTVLHQDWLNGKEYKCKVSNKALAAPIEKTISKAKGQPREPQVYTLPPSRDELTKNQVSLTCLVKGFYPSDIAVEWESNGQPENNYKTTPPVLDSDGSFFLYSKLTVDKSRWQQGNVFSCSVMHEALHNHYTQKSLSLSPGK
light: DIQMTQSPSSLSASVGDRVTITCKASQDVGIVVAWYQQKPGKAPKLLIYWASIRHTGVPSRFSGSGSGTEFTLTISSLQPDDFATYYCQQYSNYPLYTFGQGTKVEIKRTVAAPSVFIFPPSDEQLKSGTASVVCLLNNFYPREAKVQWKVDNALQSGNSQESVTEQDSKDSTYSLSSTLTLSKADYEKHKVYACEVTHQGLSSPVTKSFNRGEC
notes: also called hu333-4B2-IgGlmc
- binding result [1]: binds

B2: hu333-4B2-IgG1mf (antibody)
heavy: B1 heavy with A236G
light: B1 light
- binding result [1]: binds

B3: hu333-4A2-IgG1mc (antibody)
heavy: B1 heavy with A60V, T73N, S74A
light: B1 light
notes: also called hu333-4A2-IgGlmc
- binding result [1]: binds

B4: hu333-1A Fab (Fab)
heavy (part 1 of 2): EVQLVESGGGLVQPGGSLRLSCAVSGFSLTSYGVHWVRQAPGKGLEWVAVIWAGGSTNYNSALMSRLTISKDNAKNSVYLQMNSLRAEDTAVYYCAKPYGNSAMDYWGQGTLVTVSS
heavy (part 2 of 2): HHHHHHHH
light: DIQMTQSPSTLSASVGDRVTITCKASQDVGIVVAWYQQKPGKAPKLLIYWASIRHTGVPSRFSGSGSGTEFTLTISSLQPDDFATYYCQQYSNYPLYTFGQGTKLEIK
notes: not shown: human IgG2 CH1 (printed IgG2a-CH1); human constant region of kappa chain
- IC50 [2]: 0.057 mg/L
- IL-2 release in HuT78/P3Z, IC50 [3]: 0.012 mg/L
- IL-2 release in HuT78/PD-1, EC50 [3]: 0.066 mg/L
- IC50 [4]: 0.049 mg/L

B5: hu333-4A2 Fab (Fab)
heavy (part 1 of 2): B4 heavy (part 1 of 2) with N60V, S61D, A62S, L63V, M64K, S65G, L67F, S77T, N101T
heavy (part 2 of 2): HHHHHH
light: B4 light with T10S, L105V
notes: not shown: human IgG1-CH1; human constant region of kappa chain
- koff (human PD-L1-ECD/His [5]): 1.03e-05 s⁻¹
- Kd (human PD-L1-ECD/His [6]): 2.65 pM
- kon (human PD-L1-ECD/His [6]): 3.88e+06 M⁻¹ s⁻¹
- IL-2 release in HuT78/P3Z, IC50 [7]: 0.005 mg/L
- IL-2 release in HuT78/PD-1, EC50 [7]: 0.05 mg/L
- koff (human PD-L1-ECD/His [8]): 1.03e-05 s⁻¹
- IC50 [9]: 0.045 mg/L
- IC50 [10]: 0.05 mg/L
- Kd [11]: 2.91 pM
- kon [11]: 3.19e+06 M⁻¹ s⁻¹
- koff [12]: 9.3e-06 s⁻¹
- Kd (human PD-L1-ECD/His [13]): 2.65 pM
- kon (human PD-L1-ECD/His [13]): 3.88e+06 M⁻¹ s⁻¹

B6: hu333-4B2 Fab (Fab)
heavy (part 1 of 2): EVQLVESGGGLVQPGGSLRLSCAVSGFSLTSYGVHWVRQAPGKGLEWVAVIWAGGSTNYADSVKGRFTISKDTSKNTVYLQMNSLRAEDTAVYYCAKPYGTSAMDYWGQGTLVTVSS
heavy (part 2 of 2): HHHHHH
light: B4 light with T10S, L105V
notes: as for B5
- koff (human PD-L1-ECD/His [5]): 1.32e-05 s⁻¹
- Kd (human PD-L1-ECD/His [6]): 3.5 pM
- kon (human PD-L1-ECD/His [6]): 3.78e+06 M⁻¹ s⁻¹
- IL-2 release in HuT78/P3Z, IC50 [7]: 0.016 mg/L
- IL-2 release in HuT78/PD-1, EC50 [7]: 0.058 mg/L
- koff (human PD-L1-ECD/His [8]): 1.32e-05 s⁻¹
- IC50 [9]: 0.062 mg/L
- IC50 [10]: 0.053 mg/L
- Kd [11]: 2.5 pM
- kon [11]: 3.2e+06 M⁻¹ s⁻¹
- koff [12]: 8e-06 s⁻¹
- Kd (human PD-L1-ECD/His [13]): 3.5 pM
- kon (human PD-L1-ECD/His [13]): 3.78e+06 M⁻¹ s⁻¹
